Results: JP2018058812A

Biological target: バキュロウイルスを用いて作製したFlagタグ融合インフルエンザウィルスH1N1由来のリコンビナントヌクレオプロテイン(NP)タンパク質 (influenza A virus H1N1)

B1: 配列番号:08により表されるアミノ酸配列からなるVHH抗体 (VHH)
VHH: QVQLVESGGGLVQAGGSLRLSCAASRTIFNPNVMGWYRQAPGKQRELVADISLSGSTNYADSVKGRFTISRDNAKNTMYLQMNSLKPEDTAVYYCNTNAISGAPGRYWGQGTQVTVSS
Kd: 0.236 nM
